Consider one molecule from patent publication US20240148892A1.

This assay addresses human full-length B7H3 expressed on MCF-7 cells (human) (UniProt Q5ZPR3). The experiment in a line: cell-based or functional assay.

Chain of human full-length B7H3 expressed on MCF-7 cells (human) (Q5ZPR3 29-534 limits assumed): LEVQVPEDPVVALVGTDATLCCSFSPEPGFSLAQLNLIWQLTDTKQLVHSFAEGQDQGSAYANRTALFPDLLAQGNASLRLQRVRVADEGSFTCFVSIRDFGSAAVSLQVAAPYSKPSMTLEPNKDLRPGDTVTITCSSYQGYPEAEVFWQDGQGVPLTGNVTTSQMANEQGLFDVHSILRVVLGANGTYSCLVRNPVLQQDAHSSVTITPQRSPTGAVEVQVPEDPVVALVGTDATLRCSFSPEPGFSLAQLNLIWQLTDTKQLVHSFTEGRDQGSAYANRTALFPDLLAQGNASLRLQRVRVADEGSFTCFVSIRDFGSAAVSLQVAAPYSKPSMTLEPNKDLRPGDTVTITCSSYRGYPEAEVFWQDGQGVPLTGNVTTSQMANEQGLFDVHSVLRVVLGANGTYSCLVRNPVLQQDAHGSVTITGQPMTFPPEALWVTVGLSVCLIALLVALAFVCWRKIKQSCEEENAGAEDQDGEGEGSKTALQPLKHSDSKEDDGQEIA

B1: reference ADC-1 (Daiichi Sankyo, DS7300) (protein, INN chains, looked up)
VH: QVQLVQSGAEVKKPGSSVKVSCKASGYTFTNYVMHWVRQAPGQGLEWMGYINPYNDDVKYNEKFKGRVTITADESTSTAYMELSSLRSEDTAVYYCARWGYYGSPLYYFDYWGQGTLVTVSS
VL: EIVLTQSPATLSLSPGERATLSCRASSRLIYMHWYQQKPGQAPRPLIYATSNLASGIPARFSGSGSGTDFTLTISSLEPEDFAVYYCQQWNSNPPTFGQGTKVEIK
modifications: deruxtecan payload
As to B1, the IC50 of inhibition of proliferation, A375 melanoma cells (CellTiter-Glo) is 315 nM; the IC50 of inhibition of proliferation, A549 lung cancer cells (CellTiter-Glo) came to 378 nM; the IC50 of inhibition of proliferation, Calu-6 lung cancer cells (CellTiter-Glo) was determined as 428 nM; the IC50 of inhibition of proliferation, HT-29 colorectal cancer cells (CellTiter-Glo) came out at 1140 nM. The molecule also gave an IC50 of inhibition of proliferation, MCF-7 breast cancer cells (CellTiter-Glo) of 435 nM; an IC50 of inhibition of proliferation, NCI-H358 lung cancer cells (CellTiter-Glo) of 123 nM; an IC50 of inhibition of proliferation, NCI-H1568 lung cancer cells (CellTiter-Glo) of 32.8 nM; an IC50 of inhibition of proliferation, PC-3 prostate cancer cells (CellTiter-Glo) of 959 nM. The IC50 of inhibition of proliferation, U87 MG brain cancer cells (CellTiter-Glo) turned out to be 354 nM.
